Data taken from patent US20190071480A1 (Biogen, published 2019).
Blank lines part the entries; values can stand above or below the binder they belong to. Bridges are numbered along the chain shown (N, C = ends).

What was measured:
[1] = biological target: T1, extracellular domain of activin receptor type IIB (ActRIIBecd), biotinylated (Homo sapiens (Human), UniProt Q13705 27-117, amino-biotinylated with amine-PEG3-Biotin); assay: BIAcore SPR, biotinylated ActRIIBecd on chip; SD ±13.51 nM
T1 construct: immobilised on a streptavidin-coated sensor chip; also called biotinylated ActRIIBecd; extracellular domain of ActRIIB
T1 sequence: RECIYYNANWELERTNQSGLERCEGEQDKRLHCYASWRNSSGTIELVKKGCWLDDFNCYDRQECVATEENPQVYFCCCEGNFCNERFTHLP
Protocol: (§1) Biosensor experiments. In one embodiment, experiments were performed on a BIAcore™ T100/T200 instrument (Pharmacia Biosensor AB) in the multichannel mode (serial flow path involving flow cells 1+2+3+4). Flow rate was 10 μl/min; temperature was 25° C.; and data were recorded at 2.5 points/s. All four segments of a sensor chip CMS were coated with streptavidin (Sigma) to a density of 2000 pg/mm² (2000 resonance units) by the aminocoupling procedure. ActRIIBecd (10 mg) and amine-PEG3-Biotin (10 mg, Pierce, Rockford, Ill.) were dissolved in 200 μl H₂O and 10 mg NaCNBH₃ was added to prepare biotinylated ActRIIBecd. The reaction mixture was heated at 70° C. for 24 h, after that a further 10 mg NaCNBH₃ was added and the reaction was heated at 70° C. for another 24 h. After cooling to room temperature, the mixture was desalted with the spin column (3,000 molecular weight cut off (MWCO)). […] Sensograms were recorded during flow of the analyte (the ActRIIBecd-associated polypeptides (i.e., domains) as previously described) first through flow cell 1 (control) then through flow cell 2 (biotinylated ActRIIBecd). […] The sensograms obtained at 1.11, 3.33, 10, 30, and 90 nM analyte were evaluated for equilibrium binding, association rate, and dissociation rate by using the programs supplied with the instrument (BIA evaluation 2.1; Software Handbook. 1995; Pharmacia Biosensor AB).

[2] = biological target: T1, extracellular domain of activin …; assay: BIAcore SPR, biotinylated ActRIIBecd on chip; SD ±12.12 nM
Protocol: as §1

[3] = biological target: T1, extracellular domain of activin …; assay: BIAcore SPR, biotinylated ActRIIBecd on chip; SD ±23.17 nM
Protocol: as §1

[4] = biological target: T1, extracellular domain of activin …; assay: BIAcore SPR, biotinylated ActRIIBecd on chip; SD ±16.41 nM
Protocol: as §1

[5] = biological target: T1, extracellular domain of activin …; assay: Mean KD column of Table 5; method not restated (BIAcore as Example 5); species also listed in Table 4
Protocol: Biosensor experiments. In one embodiment, experiments were performed on a BIAcore™ T100/T200 instrument (Pharmacia Biosensor AB) in the multichannel mode (serial flow path involving flow cells 1+2+3+4). Flow rate was 10 μl/min; temperature was 25° C.; and data were recorded at 2.5 points/s. All four segments of a sensor chip CMS were coated with streptavidin (Sigma) to a density of 2000 pg/mm² (2000 resonance units) by the aminocoupling procedure. ActRIIBecd (10 mg) and amine-PEG3-Biotin (10 mg, Pierce, Rockford, Ill.) were dissolved in 200 μl H₂O and 10 mg NaCNBH₃ was added to prepare biotinylated ActRIIBecd. The reaction mixture was heated at 70° C. for 24 h, after that a further 10 mg NaCNBH₃ was added and the reaction was heated at 70° C. for another 24 h. After cooling to room temperature, the mixture was desalted with the spin column (3,000 molecular weight cut off (MWCO)). Biotinylated ActRIIBecd was collected, freeze-dried and used for streptavidin (SA) chip preparation. Amino-biotinylated ActRIIBecd was then immobilized independently on flow cells 2-4 for 10 minutes at a flow rate of 5 μL/min and a concentration of 20 μM in 10 mM sodium acetate, pH 4.0, at a density of 50-250 resonance units (RU). The stored polypeptides were dissolved in glycine buffer (2.5 g of glycine, 0.5 g of sucrose, 370 mg of L-glutamate, 10 mg of sodium chloride, and 10 mg of Tween 80 in 100 mL water, pH 4.5) to prepare 10 mg/mL solution and then diluted with previous glycine buffer to prepare analytes with various concentration. Sensograms were recorded during flow of the analyte (the ActRIIBecd-associated polypeptides (i.e., domains) as previously described) first through flow cell 1 (control) then through flow cell 2 (biotinylated ActRIIBecd). The sensogram obtained for flow cell 1 was subtracted from the sensogram obtained for flow cell 2. The sensograms obtained at 1.11, 3.33, 10, 30, and 90 nM analyte were evaluated for equilibrium binding, association rate, and dissociation rate by using the programs supplied with the instrument (BIA evaluation 2.1; Software Handbook. 1995; Pharmacia Biosensor AB).

[6] = biological target: T1, extracellular domain of activin …; assay: BIAcore SPR as Example 5 (method not restated); SD ±1.62 nM
[7] = biological target: T1, extracellular domain of activin …; assay: BIAcore SPR as Example 5 (method not restated); SD ±1.79 nM
Protocol: as §1

[8] = biological target: T1, extracellular domain of activin …; assay: BIAcore SPR as Example 5 (method not restated); SD ±2.62 nM
Protocol: as §1

[9] = biological target: T1, extracellular domain of activin …; assay: BIAcore SPR as Example 5 (method not restated); SD ±1.41 nM
Protocol: as §1

[10] = biological target: T1, extracellular domain of activin …; assay: BIAcore SPR as Example 5 (method not restated); SD ±1.98 nM
Protocol: as §1

[11] = biological target: T1, extracellular domain of activin …; assay: BIAcore SPR as Example 5 (method not restated); SD ±2.89 nM
Protocol: as §1

[12] = biological target: T1, extracellular domain of activin …; assay: BIAcore SPR as Example 5 (method not restated); SD ±2.06 nM
Protocol: as §1

[13] = biological target: T1, extracellular domain of activin …; assay: BIAcore SPR as Example 5 (method not restated); SD ±3.12 nM
Protocol: as §1

[14] = biological target: T1, extracellular domain of activin …; assay: BIAcore SPR as Example 5 (method not restated); SD ±1.09 nM
Protocol: as §1

[15] = biological target: T1, extracellular domain of activin …; assay: BIAcore SPR as Example 5 (method not restated); SD ±1.70 nM
Protocol: as §1

[16] = biological target: T1, extracellular domain of activin …; assay: BIAcore SPR as Example 5 (method not restated); SD ±2.21 nM
Protocol: as §1

[17] = biological target: T1, extracellular domain of activin …; assay: BIAcore SPR as Example 5 (method not restated); SD ±3.09 nM
Protocol: as §1

[18] = biological target: T1, extracellular domain of activin …; assay: BIAcore SPR as Example 5 (method not restated); SD ±1.56 nM
Protocol: as §1

B1: Recombinant polypeptide of clones 15 + 10 (designed binder)
chain: VDFSDVGWNDWIVAPPGYHAFYCHGECPFPLADHLNSTNHAIVQTLVNSVAQAKHKQRKRLKSSCKRHPLY
Kd [1]: 29.7 nM

Binder: AQAKHKGRKRLKSSCKRHPLY [Clone No. 11 domain (ActRIIBecd-associated polypeptide)]
Kd [3]: 63.7 nM

B3: Recombinant polypeptide of clones 18 + 17 (designed binder)
chain: VDFSDVGWNDHAVAPPGYHAFYCHGECPFPLADHLNSTNHAIVQTLVNSVVDFSDVGWNDWIVAPPGYHAFYCHGECPFPLADHLNSDNHAIVQTLVNSV
Kd [4]: 66.4 nM

B6: SEQ ID NO: 218, cysteine pairs C15-C30^a (designed binder)
chain: AQAKHKQRKRLKSSCKRHPLYNSKIPKACCVPTELSAISMLYLDENEKVVLKNYQDMVVEGCGCR
modifications: disulfide 15-30
Kd [5]: 40.9 nM | Kd [8]: 40.9 nM

B7: SEQ ID NO: 200, cysteine pairs C23-C27^a, C58-C91^a, C59-C93^a (designed binder)
chain: VDFSDVGWNDWIVAPPGYHAFYCHGECPFPLADHLNSTNHAIVQTLVNSVNSKIPKACCVPTELSAISMLYLDENEKVVLKNYQDMVVEGCGCR
modifications: disulfides C23-C27 (intra), C58-C91 (intra), C59-C93 (intra)
Kd [5]: 18.6 nM | Kd [9]: 18.6 nM

B9: SEQ ID NO: 200, cysteine pairs C23-C58^a (designed binder)
chain: VDFSDVGWNDWIVAPPGYHAFYCHGECPFPLADHLNSTNHAIVQTLVNSVNSKIPKACCVPTELSAISMLYLDENEKVVLKNYQDMVVEGCGCR
modifications: disulfides C23-C58 (intra)
Kd [5]: 47.6 nM | Kd [11]: 47.6 nM

B10: SEQ ID NO: 200, cysteine pairs C23-C27^a, C58-C93^a, C59-C91^a (designed binder)
chain: VDFSDVGWNDWIVAPPGYHAFYCHGECPFPLADHLNSTNHAIVQTLVNSVNSKIPKACCVPTELSAISMLYLDENEKVVLKNYQDMVVEGCGCR
modifications: disulfides C23-C27 (intra), C58-C93 (intra), C59-C91 (intra)
Kd [5]: 20.1 nM | Kd [12]: 20.1 nM

B11: SEQ ID NO: 206, cysteine pairs C67-C71^a, C8-C41^a, C9-C43^a (designed binder)
chain: NSKIPKACCVPTELSAISMLYLDENEKVVLKNYQDMVVEGCGCRVDFSDVGWNDWIVAPPGYHAFYCHGECPFPLADHLNSTNHAIVQTLVNSV
modifications: disulfides C67-C71 (intra), C8-C41 (intra), C9-C43 (intra)
Kd [5]: 15.5 nM | Kd [13]: 15.5 nM

B15: SEQ ID NO: 212, cysteine pairs C41-C59^a (designed binder)
chain: NSKIPKACCVPTELSAISMLYLDENEKVVLKNYQDMVVEGCGCRAQAKHKQRKRLKSSCKRHPLY
modifications: disulfide 41-59
Kd [5]: 44.3 nM | Kd [17]: 44.3 nM

Continued, values first:

Kd [2]: 36.4 nM
Binder: AQAKHKQRKRLKSSCKRHPLY [Clone No. 10 domain (ActRIIBecd-associated polypeptide)]

Kd [1]: 14.2 nM
B2: Recombinant polypeptide of clones 21 + 15 + 10 (designed binder)
chain: NSKIPKACCVPTELSAISMLYLDENEKVVLKNYQDMVVEGCGCRVDFSDVGWNDWIVAPPGYHAFYCHGECPFPLADHLNSTNHAIVQTLVNSVAQAKHKQRKRLKSSCKRHPLY

Kd [5]: 16.2 nM | Kd [6]: 16.2 nM
B4: SEQ ID NO: 218, cysteine pairs C15-C15^b, C29-C62^a, C30-C64^a (designed binder)
chain: AQAKHKQRKRLKSSCKRHPLYNSKIPKACCVPTELSAISMLYLDENEKVVLKNYQDMVVEGCGCR
modifications: disulfide 29-62, 30-64; also: homodimer via intermolecular C15-C15 disulfide
notes: homodimer by intermolecular disulfide

Kd [5]: 18.4 nM | Kd [7]: 18.4 nM
B5: SEQ ID NO: 218, cysteine pairs C15-C15^b, C29-C64^a, C30-C62^a (designed binder)
chain: AQAKHKQRKRLKSSCKRHPLYNSKIPKACCVPTELSAISMLYLDENEKVVLKNYQDMVVEGCGCR
modifications: disulfide 29-64, 30-62; also: homodimer via intermolecular C15-C15 disulfide
notes: as for B4

Kd [5]: 19.8 nM | Kd [10]: 19.8 nM
B8: SEQ ID NO: 200, cysteine pairs C23-C27^a, C58-C91^b, C59-C93^b (designed binder)
chain: VDFSDVGWNDWIVAPPGYHAFYCHGECPFPLADHLNSTNHAIVQTLVNSVNSKIPKACCVPTELSAISMLYLDENEKVVLKNYQDMVVEGCGCR
modifications: disulfides C23-C27 (intra), C58-C91 (inter), C59-C93 (inter)
notes: as for B4

Kd [5]: 49.7 nM | Kd [14]: 49.7 nM
B12: SEQ ID NO: 206, cysteine pairs C8-C71^a (designed binder)
chain: NSKIPKACCVPTELSAISMLYLDENEKVVLKNYQDMVVEGCGCRVDFSDVGWNDWIVAPPGYHAFYCHGECPFPLADHLNSTNHAIVQTLVNSV
modifications: disulfides C8-C71 (intra)

Kd [5]: 17.7 nM | Kd [15]: 17.7 nM
B13: SEQ ID NO: 206, cysteine pairs C67-C71^a, C8-C43^a, C9-C41^a (designed binder)
chain: NSKIPKACCVPTELSAISMLYLDENEKVVLKNYQDMVVEGCGCRVDFSDVGWNDWIVAPPGYHAFYCHGECPFPLADHLNSTNHAIVQTLVNSV
modifications: disulfides C67-C71 (intra), C8-C43 (intra), C9-C41 (intra)

Kd [5]: 18.1 nM | Kd [16]: 18.1 nM
B14: SEQ ID NO: 212, cysteine pairs C59-C59^b, C8-C41^a, C9-C43^a (designed binder)
chain: NSKIPKACCVPTELSAISMLYLDENEKVVLKNYQDMVVEGCGCRAQAKHKQRKRLKSSCKRHPLY
modifications: disulfide 8-41, 9-43; also: homodimer via intermolecular C59-C59 disulfide
notes: as for B4

Kd [5]: 19.3 nM | Kd [18]: 19.3 nM
B16: SEQ ID NO: 212, cysteine pairs C59-C59^b, C8-C43^a, C9-C41^a (designed binder)
chain: NSKIPKACCVPTELSAISMLYLDENEKVVLKNYQDMVVEGCGCRAQAKHKQRKRLKSSCKRHPLY
modifications: disulfide 9-41, 8-43; also: homodimer via intermolecular C59-C59 disulfide
notes: as for B4
